In publication PMC8850660 (2022):

What was measured:
[1] = molecular target: T1, unphosphorylated beta subunit of the insulin receptor (IRβ), recombinant (UniProt P06213 763-1382); test: SPR; in the presence of C646 (0-100 nM)
[2] = molecular target: T1, unphosphorylated beta subunit of the …; test: SPR; in the presence of C646 (0-100 nM); remark: listed apart in the source

T1 sequence (P06213 763-1382): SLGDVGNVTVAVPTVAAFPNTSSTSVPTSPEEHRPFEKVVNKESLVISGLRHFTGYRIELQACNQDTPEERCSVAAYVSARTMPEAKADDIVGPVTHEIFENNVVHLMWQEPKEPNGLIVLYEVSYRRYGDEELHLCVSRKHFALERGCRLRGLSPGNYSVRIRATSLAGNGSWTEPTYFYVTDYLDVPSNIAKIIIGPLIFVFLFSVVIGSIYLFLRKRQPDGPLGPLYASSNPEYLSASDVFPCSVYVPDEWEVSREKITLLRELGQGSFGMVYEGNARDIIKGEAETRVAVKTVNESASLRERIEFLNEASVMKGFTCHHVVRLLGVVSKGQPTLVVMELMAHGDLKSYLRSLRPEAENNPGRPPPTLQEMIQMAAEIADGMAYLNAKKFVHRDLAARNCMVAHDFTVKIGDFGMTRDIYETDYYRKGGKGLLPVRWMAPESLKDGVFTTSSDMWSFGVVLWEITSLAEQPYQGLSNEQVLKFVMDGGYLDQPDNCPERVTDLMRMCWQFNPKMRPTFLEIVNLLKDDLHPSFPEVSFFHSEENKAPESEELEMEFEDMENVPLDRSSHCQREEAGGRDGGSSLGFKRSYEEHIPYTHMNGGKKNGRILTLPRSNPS

Kd [1] [pM]	koff [2] [s⁻¹]	Binder
7.6	1.5e-06	purified IRS2 protein (insulin receptor substrate 2) (natural protein) MASAPLPGPPASAGGDGPNLNNNNNNNNHSVRKCGYLRKQKHGHKRFFVLRGPGTGGDEASAAGGSPPQPPRLEYYESEKKWRSKAGAPKRVIALDCCLNINKRADAKHKYLIALYTKDEYFAVAAENEQEQEGWYRALTDLVSEGRSGEGGSGTTGGSCSASLPGVLGGSAGAAGCDDNYGLVTPATAVYREVWQVNLKPKGLGQSKNLTGVYRLCLSARTIGFVKLNCEQPSVTLQLMNIRRCGHSDSFFFIEVGRSAVTGPGELWMQADDSVVAQNIHETILEAMKALKELFEFRPRSKSQSSGSSATHPISVPGARRHHHLVNLPPSQTGLVRRSRTDSLAATPPAAKCTSCRVRTASEGDGGAAGGAGTAGGRPMSVAGSPLSPGPVRAPLSRSHTLSAGCGGRPSKVTLAPAGGALQHSRSMSMPVAHSPPAATSPGSLSSSSGHGSGSYPLPPGSHPHLPHPLHHPQGQRPSSGSASASGSPSDPGFMSLDEYGSSPGDLRAFSSHRSNTPESIAETPPARDGSGGELYGYMSMDRPLSHCGRPYRRVSGDGAQDLDRGLRKRTYSLTTPARQRQVPQPSSASLDEYTLMRATFSGSSGRLCPSFPASSPKVAYNPYPEDYGDIEIGSHKSSSSNLGADDGYMPMTPGAALRSGGPNSCKSDDYMPMSPTSVSAPKQILQPRLAAALPPSGAAVPAPPSGVGRTFPVNGGGYKASSPAESSPEDSGYMRMWCGSKLSMENPDPKLLPNGDYLNMSPSEAGTAGTPPDFSAALRGGSEGLKGIPGHCYSSLPRSYKAPCSCSGDNDQYVLMSSPVGRILEEERLEPQATPGAGTFGAAGGSHTQPHHSAVPSSMRPSAIGGRPEGFLGQRCRAVRPTRLSLEGLQTLPSMQEYPLPTEPKSPGEYINIDFGEAGTRLSPPAPPLLASAASSSSLLSASSPASSLGSGTPGTSSDSRQRSPLSDYMNLDFSSPKSPKPSTRSGDTVGSMDGLLSPEASSPYPPLPPRPSTSPSSLQQPLPPAPGDLYRLPPASAATSQGPTAGSSMSSEPGDNGDYTEMAFGVAATPPQPIVAPPKPEGARVASPTSGLKRLSLMDQVSGVEAFLQVSQPPDPHRGAKVIRADPQGGRRRHSSETFSSTTTVTPVSPSFAHNSKRHNSASVENVSLRKSSEGSSTLGGGDEPPTSPGQAQPLVAVPPVPQARPWNPGQPGALIGCPGGSSSPMRRETSVGFQNGLNYIAIDVRGEQGSLAQSQPQPGDKNSWSRTRSLGGLLGTVGGSGASGVCGGPGTGALPSASTYASIDFLSHHLKEATVVKE
0.286	3.92e-08	purified IRS1 protein (insulin receptor substrate 1) (natural protein) MASPPDTDGFSDVRKVGYLRKPKSMHKRFFVLRAASEAGGPARLEYYENEKKWRHKSSAPKRSIPLESCFNINKRADSKNKHLVALYTRDEHFAIAADSEAEQDSWYQALLQLHNRAKAHHDGAGGGCGGSCSGSSGVGEAGEDLSYDTGPGPAFKEVWQVILKPKGLGQTKNLIGIYRLCLTSKTISFVKLNSEAAAVVLQLMNIRRCGHSENFFFIEVGRSAVTGPGEFWMQVDDSVVAQNMHETILEAMRAMSDEFRPRSKSQSSSSCSNPISVPLRRHHLNNPPPSQVGLTRRSRTESITATSPASMVGGKPGSFRVRASSDGEGTMSRPASVDGSPVSPSTNRTHAHRHRGSSRLHPPLNHSRSIPMPSSRCSPSATSPVSLSSSSTSGHGSTSDCLFPRRSSASVSGSPSDGGFISSDEYGSSPCDFRSSFRSVTPDSLGHTPPARGEEELSNYICMGGKGASTLAAPNGHYILSRGGNGHRYIPGANLGTSPALPGDEAAGAADLDNRFRKRTHSAGTSPTISHQKTPSQSSVASIEEYTEMMPAAYPPGGGSGGRLPGYRHSAFVPTHSYPEEGLEMHHLERRGGHHRPDTSNLHTDDGYMPMSPGVAPVPSNRKGNGDYMPMSPKSVSAPQQIINPIRRHPQRVDPNGYMMMSPSGSCSPDIGGGSSSSSSISAAPSGSSYGKPWTNGVGGHHTHALPHAKPPVESGGGKLLPCTGDYMNMSPVGDSNTSSPSECYYGPEDPQHKPVLSYYSLPRSFKHTQRPGEPEEGARHQHLRLSSSSGRLRYTATAEDSSSSTSSDSLGGGYCGARPESSLTHPHHHVLQPHLPRKVDTAAQTNSRLARPTRLSLGDPKASTLPRVREQQQQQQSSLHPPEPKSPGEYVNIEFGSGQPGYLAGPATSRSSPSVRCPPQLHPAPREETGSEEYMNMDLGPGRRATWQESGGVELGRIGPAPPGSATVCRPTRSVPNSRGDYMTMQIGCPRQSYVDTSPVAPVSYADMRTGIAAEKASLPRPTGAAPPPSSTASSSASVTPQGATAEQATHSSLLGGPQGPGGMSAFTRVNLSPNHNQSAKVIRADTQGCRRRHSSETFSAPTRAGNTVPFGAGAAVGGSGGGGGGGSEDVKRHSSASFENVWLRPGDLGGVSKESAPVCGAAGGLEKSLNYIDLDLAKEHSQDCPSQQQSLPPPPPHQPLGSNEGNSPRRSSEDLSNYASISFQKQPEDRQ
